# Columns and labels:
# [1] = target: Chaetomium thermophilum p44 (residues 1-285) (Chaetomium thermophilum)
# [2] = tested on: ctXPD Y156A (Chaetomium thermophilum); experiment: BLI; details: 3'-biotin; BLI (Octet RED): 20 mM Tris-HCl pH 8.0, 150 mM NaCl, 10 mM MgCl2, 1 mM DTT, 1 mg/ml BSA; 0.5-5 uM ctXPD; temperature not stated
# [3] = tested on: ctXPD wild type (Chaetomium thermophilum); experiment: BLI; details: 3'-biotin; BLI (Octet RED): 20 mM Tris-HCl pH 8.0, 150 mM NaCl, 10 mM MgCl2, 1 mM DTT, 1 mg/ml BSA; 0.5-5 uM ctXPD; temperature not stated
# [4] = tested on: ctXPD F192A (Chaetomium thermophilum); experiment: BLI; details: 3'-biotin; BLI (Octet RED): 20 mM Tris-HCl pH 8.0, 150 mM NaCl, 10 mM MgCl2, 1 mM DTT, 1 mg/ml BSA; 0.5-5 uM ctXPD; temperature not stated
# [5] = tested on: ctXPD K719W (Chaetomium thermophilum); experiment: BLI; details: 3'-biotin; BLI (Octet RED): 20 mM Tris-HCl pH 8.0, 150 mM NaCl, 10 mM MgCl2, 1 mM DTT, 1 mg/ml BSA; 0.5-5 uM ctXPD; temperature not stated
# [6] = tested on: ctXPD wild type;ctp44 (1-285) (Chaetomium thermophilum;Chaetomium thermophilum); experiment: BLI; details: 3'-biotin; BLI (Octet RED): 20 mM Tris-HCl pH 8.0, 150 mM NaCl, 10 mM MgCl2, 1 mM DTT, 1 mg/ml BSA; 0.5-5 uM ctXPD; temperature not stated
# [7] = tested on: ctXPD K48R (Chaetomium thermophilum); experiment: BLI; details: 3'-biotin; BLI (Octet RED): 20 mM Tris-HCl pH 8.0, 150 mM NaCl, 10 mM MgCl2, 1 mM DTT, 1 mg/ml BSA; 0.5-5 uM ctXPD; temperature not stated
# [8] = tested on: ctXPD R195A (Chaetomium thermophilum); experiment: BLI; details: 3'-biotin; BLI (Octet RED): 20 mM Tris-HCl pH 8.0, 150 mM NaCl, 10 mM MgCl2, 1 mM DTT, 1 mg/ml BSA; 0.5-5 uM ctXPD; temperature not stated
# [9] = tested on: ctXPD R195E (Chaetomium thermophilum); experiment: BLI; details: 3'-biotin; BLI (Octet RED): 20 mM Tris-HCl pH 8.0, 150 mM NaCl, 10 mM MgCl2, 1 mM DTT, 1 mg/ml BSA; 0.5-5 uM ctXPD; temperature not stated
substance,measurement,setting,value
Chaetomium thermophilum XPD K719W (enzyme),fluorescence-based helicase activity of ctXPD K719W with ctp44 (1-285) added (Rel. Fluorescence Change·s^−1),[1],4.8
same,ssDNA-dependent ATPase activity of ctXPD K719W with ctp44 (1-285) added (mol ATP·s^−1 ·mol^−1 XPD),[1],0.12
Chaetomium thermophilum XPD wild type (enzyme),ssDNA-dependent ATPase activity of ctXPD with ctp44 (1-285) added (0.12 without ctp44) (mol ATP·s^−1 ·mol^−1 XPD),[1],0.7
GACTACGTACTGTTACGGCTCCATCTCTACCGCAATCAGGCCAGATCTGC [50-nt ssDNA (BLI)],Kd,[2],0.561 µM
same,Kd,[3],0.118 µM
same,Kd,[4],0.668 µM
same,Kd,[5],0.192 µM
same,Kd,[6],0.093 µM
same,Kd,[7],0.159 µM
same,Kd,[8],1.03 µM
same,Kd,[9],0.916 µM

# From paper PMC4182028
